doi:10.1101/411223 (bioRxiv, 2018)

Molecular target: the molecule itself
Test: AUC

B1: yTBP (61-240) (domain or fragment, S. cerevisiae, UniProt P13393 61-240, looked up)
chain: SGIVPTLQNIVATVTLGCRLDLKTVALHARNAEYNPKRFAAVIMRIREPKTTALIFASGKMVVTGAKSEDDSKLASRKYARIIQKIGFAAKFTDFKIQNIVGSCDVKFPIRLEGLAFSHGTFSSYEPELFPGLIYRMVKPKIVLLIFVSGKIVLTGAKQREEIYQAFEAIYPVLSEFRKM
stoichiometry N: 2
